{"source": "paper PMC7870875", "about": "(Scientific Reports, 2021)", "binders": {"B1": {"name": "intimin-Nanobody fusion of clone W23 (bacterial display) (VHH)", "VHH": "QVQLVESGGGLVQPGESLRLSCAASGNIFGIAAVHWFRKAPGKEREFTAGFGSDGSTNYANSVKGRFTISRDNAKNTTYLQMNSLKPEDTAVYYCHALIKNELGFLDYWGPGTQVTVSS", "notes": "also called clone W23 total protein extract"}}, "key": {"[1]": {"molecular_target": "T1, full-length Spike protein of SARS-CoV-2 (SARS-CoV-2 (Wuhan-Hu-1 reference; …, UniProt P0DTC2)", "T1 construct": "source: bought: SINOBiological; produced in a baculovirus expression system", "test": "far-Western, overlay or dot blot", "settings": "one partner purified"}, "Spike-GFP": {"molecular_target": "T2, Spike-GFP (SARS-CoV-2 (Wuhan-Hu-1 reference; …, UniProt P0DTC2)", "T2 construct": "also called S-GFP", "test": "immunostaining of cells or tissue", "settings": "partners not purified"}}}
{"binder": "B1", "values": [{"measurement": "binding result", "setting": "[1]", "result": "binds"}, {"measurement": "binding result", "setting": "Spike-GFP", "result": "binds"}]}
